# T1: HNF-4 Hph I truncation (Rattus norvegicus, UniProt P22449 SEQ:1-219)
# T1 chain: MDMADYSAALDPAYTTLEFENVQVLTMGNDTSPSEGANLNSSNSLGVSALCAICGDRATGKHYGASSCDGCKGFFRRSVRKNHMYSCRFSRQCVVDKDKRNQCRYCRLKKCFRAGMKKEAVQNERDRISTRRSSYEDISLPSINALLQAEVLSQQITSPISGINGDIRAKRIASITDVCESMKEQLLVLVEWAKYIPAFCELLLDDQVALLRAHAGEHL
# B1: APF1 (dsDNA)
# DNA 1: TCGAGCGCTGGGCAAAGGTCACCTGC
# DNA 2: GCAGGTGACCTTTGCCCAGCGCTCGA
# Molecular target: T1, HNF-4 Hph I truncation
# Assay: EMSA; zinc fingers present, dimerization region absent
# Conditions: label: 32P; four-base 5' overhangs
binder,measurement,value
B1,binding result,no binding

# Source: patent US20030108912, “Liver enriched transcription factor” (published 2003)
